The values below come from publication PMC4227788, “Architecture and ssDNA interaction of the Timeless-Tipin-RPA complex” (Nucleic Acids Research, 2014).

Data set [1] deals with T1, Tim-Tipin complex;RPA70/32/14 (RPA70ABC/32D-WH/14) (mouse;mouse, UniProt Q9R1X4;Q91WA1;Q8VEE4;Q99KL9;Q9CQ71 1-1134;1-278;190-623;43-270;1-121, |). Briefly: SEC; excess DNA; intact complex, 260/280 = 1.20 ± 0.04; 20 mM Hepes pH 7.5, 125 mM NaCl, 2 mM DTT, 0.01 mM zinc acetate (Buffer A); EMSA 15 min RT + 15 min 4 C; FA 15 min 30 C, 10 nM DNA. The settings on record: protein: recombinant;recombinant; tags: His (Tim) and His-GST (Tipin), cleaved with 3C;His; copies: 1;1;1;1;1. On the technique in general: Size exclusion chromatography separates by hydrodynamic size, large species first.

For data set [2], the target named is T2, RPA70/32/14 (RPA70ABC/32D-WH/14) (mouse, UniProt Q8VEE4;Q99KL9;Q9CQ71 190-623;43-270;1-121). Briefly: SEC; excess DNA 260/280 = 1.57 ± 0.05; substoichiometric 1.32 ± 0.03; 20 mM Hepes pH 7.5, 125 mM NaCl, 2 mM DTT, 0.01 mM zinc acetate (Buffer A); EMSA 15 min RT + 15 min 4 C; FA 15 min 30 C, 10 nM DNA. The following applies: protein: recombinant; tags: His; copies: 1;1;1.

The target in data set [3] is T3, Tim-Tipin complex (mouse, UniProt Q9R1X4;Q91WA1 1-1134;1-278).
T3 sequence 1: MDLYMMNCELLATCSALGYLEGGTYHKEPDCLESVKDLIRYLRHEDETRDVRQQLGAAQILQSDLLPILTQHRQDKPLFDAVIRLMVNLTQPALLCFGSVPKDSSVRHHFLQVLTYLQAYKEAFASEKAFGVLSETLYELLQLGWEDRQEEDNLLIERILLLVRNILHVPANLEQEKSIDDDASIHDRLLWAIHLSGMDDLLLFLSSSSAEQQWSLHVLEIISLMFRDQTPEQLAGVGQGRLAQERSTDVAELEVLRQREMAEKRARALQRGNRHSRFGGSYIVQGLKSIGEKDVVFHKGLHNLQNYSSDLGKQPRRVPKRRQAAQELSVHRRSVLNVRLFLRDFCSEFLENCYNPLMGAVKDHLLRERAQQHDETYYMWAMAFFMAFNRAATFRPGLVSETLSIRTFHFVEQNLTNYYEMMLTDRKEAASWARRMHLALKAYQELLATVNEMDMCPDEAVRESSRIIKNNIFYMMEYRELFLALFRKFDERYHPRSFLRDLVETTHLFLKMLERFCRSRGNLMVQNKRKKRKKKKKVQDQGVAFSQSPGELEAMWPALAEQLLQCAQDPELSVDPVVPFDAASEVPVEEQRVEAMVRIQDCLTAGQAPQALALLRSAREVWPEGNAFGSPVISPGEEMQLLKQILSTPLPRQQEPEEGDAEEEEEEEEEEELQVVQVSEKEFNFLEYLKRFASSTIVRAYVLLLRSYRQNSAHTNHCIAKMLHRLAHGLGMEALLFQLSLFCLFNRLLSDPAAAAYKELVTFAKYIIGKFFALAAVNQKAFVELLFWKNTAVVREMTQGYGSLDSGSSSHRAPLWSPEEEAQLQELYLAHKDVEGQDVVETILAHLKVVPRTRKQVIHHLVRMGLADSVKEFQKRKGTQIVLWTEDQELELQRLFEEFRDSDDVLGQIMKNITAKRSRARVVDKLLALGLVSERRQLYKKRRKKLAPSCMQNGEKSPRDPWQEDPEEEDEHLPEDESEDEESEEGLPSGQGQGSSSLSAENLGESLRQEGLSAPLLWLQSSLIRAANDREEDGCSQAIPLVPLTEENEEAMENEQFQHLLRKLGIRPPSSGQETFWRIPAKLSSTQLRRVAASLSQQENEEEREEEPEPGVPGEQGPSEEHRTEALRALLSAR
T3 sequence 2: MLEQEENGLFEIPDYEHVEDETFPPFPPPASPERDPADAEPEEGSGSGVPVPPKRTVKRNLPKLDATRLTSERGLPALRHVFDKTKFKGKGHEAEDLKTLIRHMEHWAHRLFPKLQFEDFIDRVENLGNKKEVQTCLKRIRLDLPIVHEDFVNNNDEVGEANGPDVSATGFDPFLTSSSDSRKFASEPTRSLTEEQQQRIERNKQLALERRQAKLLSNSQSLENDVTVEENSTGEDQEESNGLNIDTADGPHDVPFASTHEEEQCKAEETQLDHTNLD
Nature of the data set: SEC; excess DNA; partial binding, 260/280 = 0.98 ± 0.14; 20 mM Hepes pH 7.5, 125 mM NaCl, 2 mM DTT, 0.01 mM zinc acetate (Buffer A); EMSA 15 min RT + 15 min 4 C; FA 15 min 30 C, 10 nM DNA. The following applies: protein: recombinant; tags: His (Tim) and His-GST (Tipin), cleaved with 3C; copies: 1;1.

For data set [4], the target named is T1, Tim-Tipin complex;RPA70/32/14 …. Briefly: EMSA; excess DNA; partial dissociation; 20 mM Hepes pH 7.5, 125 mM NaCl, 2 mM DTT, 0.01 mM zinc acetate (Buffer A); EMSA 15 min RT + 15 min 4 C; FA 15 min 30 C, 10 nM DNA. The settings on record: protein: recombinant;recombinant; tags: His (Tim) and His-GST (Tipin), cleaved with 3C;His; copies: 1;1;1;1;1; label: 5'-FAM. For orientation: In EMSA bound probe runs differently from free probe, usually more slowly.

Data set [5] has as its target T2, RPA70/32/14 (RPA70ABC/32D-WH/14). Nature of the data set: EMSA; 1 RPA with excess DNA, up to 4 RPA at substoichiometric DNA; 20 mM Hepes pH 7.5, 125 mM NaCl, 2 mM DTT, 0.01 mM zinc acetate (Buffer A); EMSA 15 min RT + 15 min 4 C; FA 15 min 30 C, 10 nM DNA. The following applies: protein: recombinant; tags: His; copies: 1;1;1; label: 5'-FAM.
Data set [6] deals with T3, Tim-Tipin complex. Nature of the data set: fluorescence anisotropy; Hill n = 2.2 ± 0.1; 30 C; 20 mM Hepes pH 7.5, 125 mM NaCl, 2 mM DTT, 0.01 mM zinc acetate (Buffer A); EMSA 15 min RT + 15 min 4 C; FA 15 min 30 C, 10 nM DNA. The following applies: protein: recombinant; tags: His (Tim) and His-GST (Tipin), cleaved with 3C; copies: 1;1; label: 5'-FAM. On the technique in general: In fluorescence polarisation assays a small probe gives low polarisation when free and higher when bound to something large.

For data set [7], the target named is T2, RPA70/32/14 (RPA70ABC/32D-WH/14). Nature of the data set: SEC; DNA-bound RPA released from Tim-Tipin-RPA mixture, 260/280 = 1.27 ± 0.05 and 1.22 ± 0.04; 20 mM Hepes pH 7.5, 125 mM NaCl, 2 mM DTT, 0.01 mM zinc acetate (Buffer A); EMSA 15 min RT + 15 min 4 C; FA 15 min 30 C, 10 nM DNA. The settings on record: protein: recombinant; tags: His; copies: 1;1;1.
Data set [8] addresses T3, Tim-Tipin complex. Briefly: SEC; 260/280 = 0.54, excess or substoichiometric DNA; 20 mM Hepes pH 7.5, 125 mM NaCl, 2 mM DTT, 0.01 mM zinc acetate (Buffer A); EMSA 15 min RT + 15 min 4 C; FA 15 min 30 C, 10 nM DNA. The settings on record: protein: recombinant; tags: His (Tim) and His-GST (Tipin), cleaved with 3C; copies: 1;1.
Data set [9] addresses T3, Tim-Tipin complex. Nature of the data set: EMSA; 16 uM protein, 4-64 uM DNA; 20 mM Hepes pH 7.5, 125 mM NaCl, 2 mM DTT, 0.01 mM zinc acetate (Buffer A); EMSA 15 min RT + 15 min 4 C; FA 15 min 30 C, 10 nM DNA. The settings on record: protein: recombinant; tags: His (Tim) and His-GST (Tipin), cleaved with 3C; copies: 1;1; label: 5'-FAM.
Data set [10] addresses T2, RPA70/32/14 (RPA70ABC/32D-WH/14). Briefly: EMSA; 1 RPA per DNA; 20 mM Hepes pH 7.5, 125 mM NaCl, 2 mM DTT, 0.01 mM zinc acetate (Buffer A); EMSA 15 min RT + 15 min 4 C; FA 15 min 30 C, 10 nM DNA. The settings on record: protein: recombinant; tags: His; copies: 1;1;1; label: 5'-FAM.
For data set [11], the target named is T4, Tim interacting protein (Tipin, residues 1-278) (mouse, UniProt Q91WA1 1-278).
T4 construct: The Tipin chain of m1, written alone for the pair Tim with Tipin; also called His-GST-Tipin; source: E. coli BL21 (DE3) gold with pRARE, co-expressed with Tim, co-purified
T4 sequence (looked up): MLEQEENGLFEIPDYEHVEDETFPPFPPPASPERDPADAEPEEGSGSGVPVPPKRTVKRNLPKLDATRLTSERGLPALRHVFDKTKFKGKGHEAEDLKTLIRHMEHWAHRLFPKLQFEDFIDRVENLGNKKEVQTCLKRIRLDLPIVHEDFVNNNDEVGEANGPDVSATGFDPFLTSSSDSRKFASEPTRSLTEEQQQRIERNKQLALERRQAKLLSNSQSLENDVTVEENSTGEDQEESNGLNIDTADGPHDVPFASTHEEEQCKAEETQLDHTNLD
Nature of the data set: SEC; Tim and Tipin co-expressed in E. coli and co-purified (Ni-NTA, Q-sepharose, SEC on Superdex 200 16/60; 20 mM Hepes pH 7.0, 125 mM NaCl, 2 mM DTT); single peak. The following applies: partners not purified.

Data set [12] has as its target T1, Tim-Tipin complex;RPA70/32/14 …. Briefly: SEC; excess DNA; intact complex, 260/280 = 1.11 ± 0.04; 20 mM Hepes pH 7.5, 125 mM NaCl, 2 mM DTT, 0.01 mM zinc acetate (Buffer A); EMSA 15 min RT + 15 min 4 C; FA 15 min 30 C, 10 nM DNA. The following applies: protein: recombinant;recombinant; tags: His (Tim) and His-GST (Tipin), cleaved with 3C;His; copies: 1;1;1;1;1.
The target in data set [13] is T2, RPA70/32/14 (RPA70ABC/32D-WH/14). Nature of the data set: SEC; excess DNA 260/280 = 1.46 ± 0.01; substoichiometric 1.28 ± 0.05; 20 mM Hepes pH 7.5, 125 mM NaCl, 2 mM DTT, 0.01 mM zinc acetate (Buffer A); EMSA 15 min RT + 15 min 4 C; FA 15 min 30 C, 10 nM DNA. The following applies: protein: recombinant; tags: His; copies: 1;1;1.

T1 sequence (Q8VEE4 190-623, chain 3 of 3): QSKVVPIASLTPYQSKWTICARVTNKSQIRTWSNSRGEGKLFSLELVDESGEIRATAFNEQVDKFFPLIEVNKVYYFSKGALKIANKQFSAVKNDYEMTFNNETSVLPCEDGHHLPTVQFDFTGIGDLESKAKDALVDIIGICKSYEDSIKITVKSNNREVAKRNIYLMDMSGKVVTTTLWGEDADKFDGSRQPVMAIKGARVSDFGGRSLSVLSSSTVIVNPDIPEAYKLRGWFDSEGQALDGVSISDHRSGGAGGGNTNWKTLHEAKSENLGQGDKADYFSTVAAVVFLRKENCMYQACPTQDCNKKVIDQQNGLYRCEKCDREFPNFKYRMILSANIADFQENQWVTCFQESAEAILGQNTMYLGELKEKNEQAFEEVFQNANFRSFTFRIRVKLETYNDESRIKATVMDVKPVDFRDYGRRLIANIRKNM
T1 sequence (chain, as listed by the source |, chain 4 of 3): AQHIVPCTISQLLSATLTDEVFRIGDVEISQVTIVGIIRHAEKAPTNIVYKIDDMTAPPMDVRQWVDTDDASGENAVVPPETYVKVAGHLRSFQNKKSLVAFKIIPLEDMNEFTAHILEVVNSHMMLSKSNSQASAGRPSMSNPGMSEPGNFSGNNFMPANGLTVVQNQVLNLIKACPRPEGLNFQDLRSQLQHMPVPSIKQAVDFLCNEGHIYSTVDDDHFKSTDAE
T1 sequence (Q9CQ71 whole entry, chain 5 of 3): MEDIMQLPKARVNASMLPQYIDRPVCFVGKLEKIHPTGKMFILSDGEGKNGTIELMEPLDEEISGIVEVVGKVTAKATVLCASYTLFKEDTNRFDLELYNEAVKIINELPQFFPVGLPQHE
T2 sequence (Q8VEE4 190-623, chain 1 of 3): as the sequence (Q8VEE4 190-623, chain 3 of 3) above
T2 sequence (chain, as listed by the source, chain 2 of 3): as the sequence (chain, as listed by the source |, chain 4 of 3) above
T2 sequence (Q9CQ71 whole entry, chain 3 of 3): as the sequence (Q9CQ71 whole entry, chain 5 of 3) above

B1: 60 nt ssDNA (SEC) (ssDNA)
DNA: CAGACCGCCACCGACTGCTTAGATATTTAAGTTTTCTAATTTTTCATTGAAAGCATTAAG
Regarding B1, the binding result in [1], in data set [2] and in data set [3] was “binds” throughout.

B2: 60 nt FAM ssDNA (ssDNA)
DNA: ACGCTGCCGAATTCTACCAGTGCCTTGCTAGGACATCTTTGCCCACCTGCAGGTTCACCC
On to B2, for which the binding result in data set [4] and in data set [5] was “binds” each time. Besides, the Kd in data set [6] was found to be 290 ± 10 nM.

In the case of AGAAGAGCCAAAAC (ssDNA) [14 nt ssDNA (SEC)], the results for the binding result in [7] and in [8] were “binds” and “no binding”, respectively.

On to GACGGCATCCCTAA (ssDNA) [14 nt FAM ssDNA], for which the binding result is reported as “no binding” in data set [9] and “binds” in data set [10].

B3: Timeless (Tim, residues 1-1134) (domain or fragment, mouse, UniProt Q9R1X4 1-1134, looked up)
chain: MDLYMMNCELLATCSALGYLEGGTYHKEPDCLESVKDLIRYLRHEDETRDVRQQLGAAQILQSDLLPILTQHRQDKPLFDAVIRLMVNLTQPALLCFGSVPKDSSVRHHFLQVLTYLQAYKEAFASEKAFGVLSETLYELLQLGWEDRQEEDNLLIERILLLVRNILHVPANLEQEKSIDDDASIHDRLLWAIHLSGMDDLLLFLSSSSAEQQWSLHVLEIISLMFRDQTPEQLAGVGQGRLAQERSTDVAELEVLRQREMAEKRARALQRGNRHSRFGGSYIVQGLKSIGEKDVVFHKGLHNLQNYSSDLGKQPRRVPKRRQAAQELSVHRRSVLNVRLFLRDFCSEFLENCYNPLMGAVKDHLLRERAQQHDETYYMWAMAFFMAFNRAATFRPGLVSETLSIRTFHFVEQNLTNYYEMMLTDRKEAASWARRMHLALKAYQELLATVNEMDMCPDEAVRESSRIIKNNIFYMMEYRELFLALFRKFDERYHPRSFLRDLVETTHLFLKMLERFCRSRGNLMVQNKRKKRKKKKKVQDQGVAFSQSPGELEAMWPALAEQLLQCAQDPELSVDPVVPFDAASEVPVEEQRVEAMVRIQDCLTAGQAPQALALLRSAREVWPEGNAFGSPVISPGEEMQLLKQILSTPLPRQQEPEEGDAEEEEEEEEEEELQVVQVSEKEFNFLEYLKRFASSTIVRAYVLLLRSYRQNSAHTNHCIAKMLHRLAHGLGMEALLFQLSLFCLFNRLLSDPAAAAYKELVTFAKYIIGKFFALAAVNQKAFVELLFWKNTAVVREMTQGYGSLDSGSSSHRAPLWSPEEEAQLQELYLAHKDVEGQDVVETILAHLKVVPRTRKQVIHHLVRMGLADSVKEFQKRKGTQIVLWTEDQELELQRLFEEFRDSDDVLGQIMKNITAKRSRARVVDKLLALGLVSERRQLYKKRRKKLAPSCMQNGEKSPRDPWQEDPEEEDEHLPEDESEDEESEEGLPSGQGQGSSSLSAENLGESLRQEGLSAPLLWLQSSLIRAANDREEDGCSQAIPLVPLTEENEEAMENEQFQHLLRKLGIRPPSSGQETFWRIPAKLSSTQLRRVAASLSQQENEEEREEEPEPGVPGEQGPSEEHRTEALRALLSAR
notes: Timeless (Tim), mouse, AB019001, aa 1-1134; The Tim chain of m1, written alone for the pair Tim with Tipin; also called mTim; His-Tim; source: E. coli BL21 (DE3) gold with pRARE, co-expressed with Tipin, co-purified
Regarding B3, in data set [11], the “stoichiometry N” value was determined as 1.

On to CGGGATCCCAGCCAGCGATGTCTCAAGCTGC (ssDNA) [31 nt ssDNA (SEC)], for which the binding result in data set [12] and in data set [13] was “binds” throughout.

The term Kd denotes a measure of binding affinity in units of concentration. The stoichiometry N is a count of units in the complex or per binding partner.
